Measurements as given in article doi:10.1101/2021.04.23.441074 (bioRxiv, 2021).

Target: MSH2-MSH3 (purified heterodimer) (human, UniProt P43246 1-934; P20585 1-1137)
Assay: native gel or EMSA

Chain of MSH2-MSH3 (purified heterodimer) (P43246 whole entry, chain 1 of 2): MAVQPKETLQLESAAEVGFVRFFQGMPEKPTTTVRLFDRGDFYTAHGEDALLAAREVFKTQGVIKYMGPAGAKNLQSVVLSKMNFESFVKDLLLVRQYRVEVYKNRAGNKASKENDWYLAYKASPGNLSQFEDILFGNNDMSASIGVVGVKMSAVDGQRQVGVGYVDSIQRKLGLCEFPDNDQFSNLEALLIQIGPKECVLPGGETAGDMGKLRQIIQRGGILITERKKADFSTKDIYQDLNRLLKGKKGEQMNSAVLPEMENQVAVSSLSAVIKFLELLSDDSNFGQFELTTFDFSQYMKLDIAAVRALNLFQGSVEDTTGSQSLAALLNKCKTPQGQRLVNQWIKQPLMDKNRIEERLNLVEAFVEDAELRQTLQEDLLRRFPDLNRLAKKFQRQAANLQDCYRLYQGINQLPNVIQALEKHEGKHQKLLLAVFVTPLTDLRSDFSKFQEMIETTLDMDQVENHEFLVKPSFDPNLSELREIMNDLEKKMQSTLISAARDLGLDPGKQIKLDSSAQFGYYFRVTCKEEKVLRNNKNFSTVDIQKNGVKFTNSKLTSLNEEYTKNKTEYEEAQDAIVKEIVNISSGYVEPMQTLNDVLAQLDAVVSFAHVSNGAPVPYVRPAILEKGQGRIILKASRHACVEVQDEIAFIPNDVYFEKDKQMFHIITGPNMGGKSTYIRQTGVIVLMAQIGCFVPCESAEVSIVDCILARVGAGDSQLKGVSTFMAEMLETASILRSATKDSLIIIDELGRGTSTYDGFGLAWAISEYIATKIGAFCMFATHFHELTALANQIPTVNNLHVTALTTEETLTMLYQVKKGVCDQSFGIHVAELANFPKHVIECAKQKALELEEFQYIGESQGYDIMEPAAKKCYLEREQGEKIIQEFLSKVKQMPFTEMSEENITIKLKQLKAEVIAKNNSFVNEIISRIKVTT
Chain of MSH2-MSH3 (purified heterodimer) (P20585 whole entry, chain 2 of 2): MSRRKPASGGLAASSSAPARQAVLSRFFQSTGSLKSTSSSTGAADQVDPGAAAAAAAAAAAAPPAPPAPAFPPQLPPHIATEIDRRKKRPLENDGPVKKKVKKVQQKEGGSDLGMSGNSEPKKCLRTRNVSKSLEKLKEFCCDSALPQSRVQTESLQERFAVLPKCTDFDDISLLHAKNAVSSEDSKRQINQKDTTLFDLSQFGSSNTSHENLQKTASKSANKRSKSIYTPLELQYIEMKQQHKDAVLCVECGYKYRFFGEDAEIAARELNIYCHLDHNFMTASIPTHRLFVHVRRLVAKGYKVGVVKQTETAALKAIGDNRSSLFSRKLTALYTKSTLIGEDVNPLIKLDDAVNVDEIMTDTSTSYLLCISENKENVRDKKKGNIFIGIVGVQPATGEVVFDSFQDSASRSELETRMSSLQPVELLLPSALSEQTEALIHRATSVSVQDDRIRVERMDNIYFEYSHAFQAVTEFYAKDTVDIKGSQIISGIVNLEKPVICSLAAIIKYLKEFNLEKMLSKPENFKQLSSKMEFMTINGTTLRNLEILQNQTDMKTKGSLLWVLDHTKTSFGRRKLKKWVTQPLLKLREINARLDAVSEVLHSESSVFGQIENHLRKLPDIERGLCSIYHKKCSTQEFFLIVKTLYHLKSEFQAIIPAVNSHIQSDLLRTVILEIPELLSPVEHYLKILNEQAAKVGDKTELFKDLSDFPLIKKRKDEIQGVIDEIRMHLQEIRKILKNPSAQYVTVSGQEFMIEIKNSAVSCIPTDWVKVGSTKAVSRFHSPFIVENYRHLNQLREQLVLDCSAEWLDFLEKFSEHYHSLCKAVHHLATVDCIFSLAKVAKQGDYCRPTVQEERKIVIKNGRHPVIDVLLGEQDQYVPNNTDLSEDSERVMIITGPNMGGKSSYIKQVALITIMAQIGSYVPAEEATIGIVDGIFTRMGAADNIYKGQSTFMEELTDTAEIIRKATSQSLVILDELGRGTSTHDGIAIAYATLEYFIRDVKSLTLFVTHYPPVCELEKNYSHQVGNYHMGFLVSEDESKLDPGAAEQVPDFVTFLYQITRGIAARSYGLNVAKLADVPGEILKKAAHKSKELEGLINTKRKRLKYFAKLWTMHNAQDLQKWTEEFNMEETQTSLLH

binding result: binds
B1: SMARCAD1 (purified) (enzyme, human, UniProt Q9H4L7 1-1026, looked up)
chain: MNLFNLDRFRFEKRNKIEEAPEATPQPSQPGPSSPISLSAEEENAEGEVSRANTPDSDITEKTEDSSVPETPDNERKASISYFKNQRGIQYIDLSSDSEDVVSPNCSNTVQEKTFNKDTVIIVSEPSEDEESQGLPTMARRNDDISELEDLSELEDLKDAKLQTLKELFPQRSDNDLLKLIESTSTMDGAIAAALLMFGDAGGGPRKRKLSSSSEPYEEDEFNDDQSIKKTRLDHGEESNESAESSSNWEKQESIVLKLQKEFPNFDKQELREVLKEHEWMYTEALESLKVFAEDQDMQYVSQSEVPNGKEVSSRSQNYPKNATKTKLKQKFSMKAQNGFNKKRKKNVFNPKRVVEDSEYDSGSDVGSSLDEDYSSGEEVMEDGYKGKILHFLQDASIGELTLIPQCSQKKAQKITELRPFNSWEALFTKMSKTNGLSEDLIWHCKTLIQERDVVIRLMNKCEDISNKLTKQVTMLTGNGGGWNIEQPSILNQSLSLKPYQKVGLNWLALVHKHGLNGILADEMGLGKTIQAIAFLAYLYQEGNNGPHLIVVPASTIDNWLREVNLWCPTLKVLCYYGSQEERKQIRFNIHSRYEDYNVIVTTYNCAISSSDDRSLFRRLKLNYAIFDEGHMLKNMGSIRYQHLMTINANNRLLLTGTPVQNNLLELMSLLNFVMPHMFSSSTSEIRRMFSSKTKSADEQSIYEKERIAHAKQIIKPFILRRVKEEVLKQLPPKKDRIELCAMSEKQEQLYLGLFNRLKKSINNLEKNTEMCNVMMQLRKMANHPLLHRQYYTAEKLKEMSQLMLKEPTHCEANPDLIFEDMEVMTDFELHVLCKQYRHINNFQLDMDLILDSGKFRVLGCILSELKQKGDRVVLFSQFTMMLDILEVLLKHHQHRYLRLDGKTQISERIHLIDEFNTDMDIFVFLLSTKAGGLGINLTSANVVILHDIDCNPYNDKQAEDRCHRVGQTKEVLVIKLISQGTIEESMLKINQQKLKLEQDMTTVDEGDEGSMPADIATLLKTSMGL
